This note sets out measurements from the supplement of paper PMC12764529.

Data set [1] can be described thus: folding stability dG unfold from trypsin proteolysis; higher = more stable. The procedure, abridged:
(§1)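 Unfolding free energy was derived, per protease or combined, by relating Bayesian-fitted K50 values from sequencing counts to a sequence-predicted unfolded-state K50 and a shared folded-state K50. The underlying digests exposed cysteine-free mini-proteins under 80 residues, in a PA-tagged cDNA display construct, to trypsin and chymotrypsin at 11 threefold-diluted concentrations and to a no-protease condition. A filter kept only designs with AlphaFold2 dimer inter-PAE above 15.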

Data set [2] in a line: folding stability dG unfold from chymotrypsin proteolysis; higher = more stable. The procedure, abridged: as §1
Data set [3] is described as follows: folding stability dG unfold (combined trypsin and chymotrypsin); higher = more stable. Summed up:
as §1

± gives the half width of the 95% confidence interval.

With “SAGGMKIEKIFSSEEEAKAAAEKIKNETPEGKELKIEISKIPLKENLPPESPEILDEERYIVKVELPSAGGS [r16_795_JUSTAS]”, the “folding stability dG unfold” value in data set [1] was 0.816 ± 0.078 kcal/mol; in data set [2], 0.116 ± 0.42 kcal/mol; in data set [3], 0.467 ± 0.24 kcal/mol.

For “SAGGMKIIEIEDRGPGKFAGPETVLEALRKALPGIPIEVLDYDPEKHVIRIRVPEEAVPRIVEAFKSSAGGS [r8_235_TrMRF]”, the “folding stability dG unfold” value in data set [1] came to 3.68 ± 0.098 kcal/mol; in data set [2] it was 3.96 ± 0.056 kcal/mol; in data set [3] it was 3.88 ± 0.057 kcal/mol.

As for “SAGGMKIIPITPEMIEEAKKLGLTPEDEAFEFEVTLPNGEVLRGTLIIPPDNPDIPVEAEPYLNLDKSAGGS [r16_497_TrMRF]”, the “folding stability dG unfold” value in data set [1] amounted to 0.555 ± 0.1 kcal/mol; in data set [2], 0.904 ± 0.092 kcal/mol; in data set [3] it was 0.703 ± 0.18 kcal/mol.

With “SAGGMKIKLKDGSEITIGSEPGRLVIVLRPPGPRSRKVIPFPVPSKEHGFVAAVNELLSLEDIEEIEPSAGG [r13_579_TrMRF]”, the “folding stability dG unfold” value came to 0.379 ± 0.11 kcal/mol in data set [1], 1.34 ± 0.077 kcal/mol in data set [2] and 1.15 ± 0.2 kcal/mol in data set [3].

As for “SAGGMKIKLKNGKVIEIKKKPGYIEIKIIDKKTKKVYTYTFKSKDGKISLEDLAKKLAELPNIKEIIPSAGG [r13_579_TrROS_Hall]”, the “folding stability dG unfold” value in data set [1] amounted to 3.3 ± 0.29 kcal/mol; in data set [2] it was 4.48 ± 0.15 kcal/mol; in data set [3], 4.27 ± 0.32 kcal/mol.

For “SAGGMKIKTKSGKELTLKKIKLKYKNKEYEIENLKIKAIKYDPKKKIVHIEVTHPNGKKYTFDLKIKSAGGS [r8_215_TrMRF]”, the “folding stability dG unfold” value came out at 1.69 ± 0.052 kcal/mol in data set [1], 3.49 ± 0.086 kcal/mol in data set [2] and 2.8 ± 0.21 kcal/mol in data set [3].

With “SAGGMKIRIPEGQEVKLKKVRFWHNGKPWKIPNMEIKVDRIDPNDNRVQIEIKHPNGRPHTFAFDIKSAGGS [r8_215_TrROS]”, the “folding stability dG unfold” value in data set [1] amounted to 0.459 ± 0.11 kcal/mol; in data set [2], 0.456 ± 0.13 kcal/mol; in data set [3], 0.512 ± 0.086 kcal/mol.

“SAGGMKITITYDKETKTITVKITYPDGTTEELTIEVPPEKKTPEEIAEELKKLIEERFGKKVEIEIVSAGGS [r8_166_TrROS_Hall]”: the “folding stability dG unfold” value in data set [1] stood at 3.82 ± 0.26 kcal/mol; in data set [2] it was 2.45 ± 0.18 kcal/mol; in data set [3], 2.98 ± 0.15 kcal/mol.

Regarding “SAGGMKITKEGNELTLTYPNLTVTYDPNTGKMTITNPATGKTVTIPVPATSLEEKLAAVEEVKAALPSAGGS [r8_447_JUSTAS]”, the “folding stability dG unfold” value turned out to be 1.06 ± 0.025 kcal/mol in data set [1], 0.707 ± 0.042 kcal/mol in data set [2] and 0.918 ± 0.041 kcal/mol in data set [3].

“SAGGMKITLPPGAEITEVFELPDGQLLLRVRHKDTGKTEVVPASDLEIEIEPGEEVEVEIFRVPKEDLSAGG [r13_173_TrROS_Hall]”: the “folding stability dG unfold” value came to 1.38 ± 0.069 kcal/mol in data set [1], 1.45 ± 0.13 kcal/mol in data set [2] and 1.39 ± 0.14 kcal/mol in data set [3].

With “SAGGMKIVEITEEVPPGAVVRITFEDGSKREIKIPNVAELKGKKITLELPGLKVVKIEVVPAKEGEEVSAGG [r13_587_TrROS_Hall]”, the “folding stability dG unfold” value stood at 2.3 ± 0.15 kcal/mol in data set [1], 1.69 ± 0.29 kcal/mol in data set [2] and 2.05 ± 0.48 kcal/mol in data set [3].

Turning to “SAGGMKKITITIPLEELKNLTPEERKEKLKELAEEIAKKLGLPPGAKIKKIEVEEVDGKLYVKIEIESAGGS [r16_368_TrROS_Hall]”, the “folding stability dG unfold” value was found to be 3.82 ± 0.18 kcal/mol in data set [1], 3.93 ± 0.066 kcal/mol in data set [2] and 3.92 ± 0.1 kcal/mol in data set [3].

With “SAGGMKKTVTITITEELPTETGEYKTKTVTTTLTVTPPPPEVTEEEKLREKALKENPNVSPDDPKALLSAGG [r13_136_JUSTAS]”, the “folding stability dG unfold” value in data set [1] is -0.948 ± 0.6 kcal/mol; in data set [2], 0.535 ± 0.11 kcal/mol; in data set [3], 0.153 ± 0.14 kcal/mol.

With “SAGGMKLEFEAEITVPLPVPTPEGGLEFVPITEPIRIEAEHPEELEIALKEAELETIERALKELGIESAGGS [r16_339_TrMRF]”, the “folding stability dG unfold” value in data set [1] was -0.594 ± 0.19 kcal/mol; in data set [2], -0.723 ± 0.16 kcal/mol; in data set [3], -0.845 ± 0.59 kcal/mol.

Take “SAGGMKLVVTKVGEDDNTEYYLITDPGSAEAIREAIKKLVPKDLPYKVTVLSYDPATGTYTVLVEVKRSAGG [r13_491_JUSTAS]”: the figures for the “folding stability dG unfold” value in data set [1], in data set [2] and in data set [3] were 2.91 ± 0.13 kcal/mol, 3.67 ± 0.039 kcal/mol and 3.44 ± 0.11 kcal/mol, respectively.

Consider “SAGGMKPGEKVLVKITLKKEVFKNENGEEVKVEEKEILIELEVDSLEEALEALKKLLPPGAEIEVLPSAGGS [r16_282_TrROS_Hall]”, for which the “folding stability dG unfold” value came to 3.52 ± 0.13 kcal/mol in data set [1], 3.1 ± 0.047 kcal/mol in data set [2] and 3.24 ± 0.13 kcal/mol in data set [3].

With “SAGGMKPGESSTVPPVVERTTSPDSLGNPRYTVTRVTEITVTYFPDSINVTVTTETTVVSTATPGLLSAGGS [r8_70_JUSTAS]”, the “folding stability dG unfold” value in data set [1] amounted to 2.2 ± 0.059 kcal/mol; in data set [2], 1.15 ± 0.031 kcal/mol; in data set [3] it was 1.78 ± 0.07 kcal/mol.

On to “SAGGMKPGQPWHEIEVQREIDLPPGQISAEEIADLIAELFPGFRVEDFRIEFTGKKWRIDVTIYIPYSAGGS [r8_202_TrROS]”, for which the “folding stability dG unfold” value in data set [1] was found to be 2.56 ± 0.073 kcal/mol; in data set [2], 3.49 ± 0.039 kcal/mol; in data set [3], 3.14 ± 0.11 kcal/mol.

For “SAGGMKTAVLTLEVPGLPKRLVLIAGESEEEYKKLAAEAEKPGYEFLGYTTLEELVERTGLPASLLLSAGGS [r16_438_JUSTAS]”, the “folding stability dG unfold” value was 0.916 ± 0.085 kcal/mol in data set [1], 1.07 ± 0.28 kcal/mol in data set [2] and 0.969 ± 0.19 kcal/mol in data set [3].

As to “SAGGMKTFEKPMTAEEVMALLEEIAKKGNVNVTIETEGKTYEVDPSKAKPIPPENVTAKITITELPKSAGGS [r16_628_JUSTAS]”, the “folding stability dG unfold” value was -0.051 ± 0.15 kcal/mol in data set [1], -0.182 ± 0.17 kcal/mol in data set [2] and 0.186 ± 0.28 kcal/mol in data set [3].

For “SAGGMKTLRLVVTVKVPKETGKPTVAEKLAEELAKLPGVEVVKVEVKRLENGTVVVTIEIKVPKELKPSAGG [r13_428_TrROS_Hall]”, the entries for the “folding stability dG unfold” value in data set [1], in data set [2] and in data set [3] were 3.13 ± 0.23 kcal/mol, 3.36 ± 0.061 kcal/mol and 3.18 ± 0.13 kcal/mol, respectively.

Regarding “SAGGMKTVEIEIPVPPGMSIEELVKKLLEELKKKKDIKEVEIEITLKDGSKIKIRVNKNGKIVKVEKLSAGG [r13_690_TrROS_Hall]”, the entries for the “folding stability dG unfold” value in data set [1], in data set [2] and in data set [3] were 1.73 ± 0.056 kcal/mol, 2.46 ± 0.11 kcal/mol and 2.25 ± 0.15 kcal/mol, respectively.

With “SAGGMKVKKIPVIVKILRKKDKKPIKEIPALAYKVDDKIYLVFEKPKDIKIAKEIAEKTGLPIEIYPSAGGS [r16_327_TrMRF]”, the results for the “folding stability dG unfold” value in data set [1], in data set [2] and in data set [3] were 1.01 ± 0.025 kcal/mol, 2.02 ± 0.062 kcal/mol and 1.66 ± 0.066 kcal/mol, respectively.

“SAGGMKVRIRIEVDGKTLELELEVEPGETVKITLEVNGEEVTITFDAATGEITIELPPGAKIVEIEPSAGGS [r16_761_TrROS_Hall]”: the “folding stability dG unfold” value in data set [1] came out at 3.56 ± 0.23 kcal/mol; in data set [2] it was 4.52 ± 0.46 kcal/mol; in data set [3] it was 4.01 ± 0.39 kcal/mol.

Take “SAGGMKVTILEVKPDEVVVKTSDGKTYVFPEVIKELKEKGGGVLPTKEEIAEYLKKNNIPVDDVEFGLSAGG [r13_610_JUSTAS]”: the “folding stability dG unfold” value in data set [1] came to 0.436 ± 0.1 kcal/mol; in data set [2], 1.9 ± 0.058 kcal/mol; in data set [3], 1.6 ± 0.15 kcal/mol.

Turning to “SAGGMKVTPNGKVVKKKPKVPVKKVTLTVKVKTAEEAKALADALRDLGYKVTVDEETGVVTVEVEIESAGGS [r16_765_TrROS_Hall]”, the “folding stability dG unfold” value in data set [1] came to 0.996 ± 0.079 kcal/mol; in data set [2], 1.5 ± 0.058 kcal/mol; in data set [3], 1.28 ± 0.1 kcal/mol.

For “SAGGMKVTRLPNALVFEYPLPNSTLRIVVTPGDGTYTLELYRDGKLIATFPSPGPVADLVEAAIKALSAGGS [r8_276_TrMRF]”, the “folding stability dG unfold” value in data set [1] amounted to 2.55 ± 0.053 kcal/mol; in data set [2] it was 3.2 ± 0.033 kcal/mol; in data set [3], 3.01 ± 0.073 kcal/mol.

In the case of “SAGGMKVTTKPLPSDSEVVDIPGGVTMKIDPKTGVGTITLPDGKTLKMTITKDPNKNTTTITITPESSAGGS [r8_186_JUSTAS]”, the “folding stability dG unfold” value in data set [1] turned out to be 0.366 ± 0.16 kcal/mol; in data set [2] it was 1.14 ± 0.2 kcal/mol; in data set [3] it was 0.998 ± 0.22 kcal/mol.

On to “SAGGMKVVIYVKDPEKFLKAIEEIENIPLENVKFEPLEGDYYKYEFPNLEAVEELIKKGYDILKIEPSAGGS [r16_381_TrMRF]”, for which the figures for the “folding stability dG unfold” value in data set [1], in data set [2] and in data set [3] were 1.96 ± 0.09 kcal/mol, 2.57 ± 0.03 kcal/mol and 2.34 ± 0.083 kcal/mol, respectively.

“SAGGMLIIRIEIEIEKNGKKEKKEILIVAKTEEEAKKAAEKIAKEKGLKIKKIEILPFKSLEELKKALSAGG [r13_949_TrROS_Hall]”: the “folding stability dG unfold” value in data set [1] is 2.12 ± 0.061 kcal/mol; in data set [2], 3.45 ± 0.037 kcal/mol; in data set [3], 3.11 ± 0.089 kcal/mol.

For “SAGGMLLLTLTVDRVEEAEFPEKVPYLRTTTQPVVVPGTTLEEAEAVAAALAAAHGVPVTLTVTPETGSAGG [r13_320_JUSTAS]”, the figures for the “folding stability dG unfold” value in data set [1], in data set [2] and in data set [3] were -0.314 ± 0.16 kcal/mol, -0.175 ± 0.11 kcal/mol and -0.189 ± 0.072 kcal/mol, respectively.

Consider “SAGGMLTLEEIKKAKPGEKLEIEVDGKIYLVEIKKNENGELTLTVKKVDKETGEIVEEKTISLEELLSAGGS [r16_763_TrROS_Hall]”, for which the entries for the “folding stability dG unfold” value in data set [1], in data set [2] and in data set [3] were 2.91 ± 0.11 kcal/mol, 3.78 ± 0.077 kcal/mol and 3.53 ± 0.07 kcal/mol, respectively.

Regarding “SAGGMLVVLLDDRPEVLPVNPERFETPEEAVEAVAREVAERFPDAGERRVVVVNEDGEEVATVELTPESAGG [r13_257_TrMRF]”, the “folding stability dG unfold” value is -1.08 ± 0.12 kcal/mol in data set [1], 0.875 ± 0.04 kcal/mol in data set [2] and 0.459 ± 0.052 kcal/mol in data set [3].

In the case of “SAGGMMEVEEREVEIELELEPGQSIEEALRELLGLEEGDEIVDVEVEVDPETRKVKIRVVILRPPEEESAGG [r13_828_TrROS_Hall]”, the “folding stability dG unfold” value in data set [1] was found to be 4.24 ± 0.39 kcal/mol; in data set [2] it was 2.79 ± 0.2 kcal/mol; in data set [3], 3.68 ± 0.52 kcal/mol.

For “SAGGMMIVIRIPNKPVEFEINGWKIEYNPDEGTIIIPFPPEMLDQLEKLPGLEGIKDIEIIPPGELKSAGGS [r8_493_TrROS]”, the “folding stability dG unfold” value was 1.22 ± 0.029 kcal/mol in data set [1], 2.56 ± 0.051 kcal/mol in data set [2] and 2.12 ± 0.14 kcal/mol in data set [3].
